Values of other authors in publication PMC2818086.

Test system: His64
Assay: kinetics
Details: 25 °C; free enzyme in solution during catalysis (zinc-loaded)

Substance	pKa
Carbonic anhydrase II (HCA II) N62A (Homo sapiens; N62A)	6.2
Carbonic anhydrase II (HCA II) N62D (Homo sapiens; N62D)	8.4
Carbonic anhydrase II (HCA II) N62L (Homo sapiens; N62L)	6.0
Carbonic anhydrase II (HCA II) N62T (Homo sapiens; N62T)	7.0
Carbonic anhydrase II (HCA II) N62V (Homo sapiens; N62V)	5.9
Carbonic anhydrase II (HCA II) N67L (Homo sapiens; N67L)	7.5
Carbonic anhydrase II (HCA II) Y7F (Homo sapiens; Y7F)	6.0
Carbonic anhydrase II (HCA II), wild type (Homo sapiens)	7.2
